The values below come from PMC9881156, “POT-3 preferentially binds the terminal DNA-repeat on the telomeric G-overhang”.

The target in data set [1] is T1, POT-3 (Caenorhabditis elegans, UniProt G5EFG7 1-215).
T1 sequence: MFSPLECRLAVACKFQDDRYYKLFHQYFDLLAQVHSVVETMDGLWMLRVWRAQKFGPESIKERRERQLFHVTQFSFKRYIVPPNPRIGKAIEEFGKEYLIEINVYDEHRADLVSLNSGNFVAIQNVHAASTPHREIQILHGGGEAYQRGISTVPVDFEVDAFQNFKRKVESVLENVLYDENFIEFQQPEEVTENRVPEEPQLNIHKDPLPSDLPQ
The data set is described as follows: EMSA. The conditions noted are these: apparent, EMSA: 20 mM Tris-HCl pH 8.0, 50 mM NaCl, 1 mM MgCl2, 5 mM DTT, 50 ug/ml BSA, 4% Ficoll 400, on ice 10 min, competition and S4 Kd: same salts with 0.001% …. Background: A gel shift assay detects complexes by their altered migration in electrophoresis.

For data set [2], the target named is T2, POT-2 (Caenorhabditis elegans, UniProt O45595 1-251).
T2 sequence: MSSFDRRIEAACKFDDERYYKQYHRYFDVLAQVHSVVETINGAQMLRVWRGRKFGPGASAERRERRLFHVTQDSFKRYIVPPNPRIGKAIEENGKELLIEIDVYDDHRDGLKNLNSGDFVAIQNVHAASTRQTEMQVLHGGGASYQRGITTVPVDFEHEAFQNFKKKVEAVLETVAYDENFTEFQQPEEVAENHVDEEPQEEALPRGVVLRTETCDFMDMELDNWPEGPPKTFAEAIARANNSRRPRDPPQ
Description: EMSA. To be noted: apparent, EMSA: 20 mM Tris-HCl pH 8.0, 50 mM NaCl, 1 mM MgCl2, 5 mM DTT, 50 ug/ml BSA, 4% Ficoll 400, on ice 10 min, competition and S4 Kd: same salts with 0.001% ….

Data set [3] addresses T1, POT-3. The data set is described as follows: analytical gel filtration; 1 protein per DNA; 500 mM NaCl; EMSA: 20 mM Tris-HCl pH 8.0, 50 mM NaCl, 1 mM MgCl2, 5 mM DTT, 50 ug/ml BSA, 4% Ficoll 400, on ice 10 min; competition and S4 Kd: same salts with 0.001% Tween-20, room temperature; gel filtration: 20 mM Tris-HCl pH 8.0, 500 mM NaCl, 10 mM DTT, 10% glycerol (binding). To be noted: protein: recombinant; tags: 6xHis.

Data set [4] deals with T2, POT-2. The description is as above. To be noted: protein: recombinant; tags: 6xHis.
Data set [5] has as its target T1, POT-3. The data set is described as follows: analytical gel filtration; 3 proteins per DNA; 500 mM NaCl; EMSA: 20 mM Tris-HCl pH 8.0, 50 mM NaCl, 1 mM MgCl2, 5 mM DTT, 50 ug/ml BSA, 4% Ficoll 400, on ice 10 min; competition and S4 Kd: same salts with 0.001% Tween-20, room temperature; gel filtration: 20 mM Tris-HCl pH 8.0, 500 mM NaCl, 10 mM DTT, 10% glycerol (binding). The conditions noted are these: protein: recombinant; tags: 6xHis.

The target in data set [6] is T2, POT-2. The description is as above. The conditions noted are these: protein: recombinant; tags: 6xHis.

Consider “fragment 7 / 12mer, (TTAGGC)2 3' overhang”, for which the Kd with POT-3 [1] (on ice) is 0.16 nM; with POT-3 [1] (room temperature), 5 nM; with POT-2 [2] (on ice) it was 0.1 nM; with POT-2 [2] (room temperature) it was 7.2 nM.
On to TTAGGCTTAGGC (ssDNA) [(TTAGGC)2 ssDNA], for which the binding result with POT-3 [3] and with POT-2 [4] was “binds” in each case.
Turning to TTAGGCTTAGGCTTAGGCTTAGGC (ssDNA) [(TTAGGC)4 ssDNA], the binding result in the data set with POT-3 [5] and with POT-2 [6] was “binds” throughout.
